The values that follow come from paper PMC6628393.

In this assay the target is Kv2.1 potassium channel (UniProt Q14721).
Sequence of UniProt Q14721 (Q14721 whole entry): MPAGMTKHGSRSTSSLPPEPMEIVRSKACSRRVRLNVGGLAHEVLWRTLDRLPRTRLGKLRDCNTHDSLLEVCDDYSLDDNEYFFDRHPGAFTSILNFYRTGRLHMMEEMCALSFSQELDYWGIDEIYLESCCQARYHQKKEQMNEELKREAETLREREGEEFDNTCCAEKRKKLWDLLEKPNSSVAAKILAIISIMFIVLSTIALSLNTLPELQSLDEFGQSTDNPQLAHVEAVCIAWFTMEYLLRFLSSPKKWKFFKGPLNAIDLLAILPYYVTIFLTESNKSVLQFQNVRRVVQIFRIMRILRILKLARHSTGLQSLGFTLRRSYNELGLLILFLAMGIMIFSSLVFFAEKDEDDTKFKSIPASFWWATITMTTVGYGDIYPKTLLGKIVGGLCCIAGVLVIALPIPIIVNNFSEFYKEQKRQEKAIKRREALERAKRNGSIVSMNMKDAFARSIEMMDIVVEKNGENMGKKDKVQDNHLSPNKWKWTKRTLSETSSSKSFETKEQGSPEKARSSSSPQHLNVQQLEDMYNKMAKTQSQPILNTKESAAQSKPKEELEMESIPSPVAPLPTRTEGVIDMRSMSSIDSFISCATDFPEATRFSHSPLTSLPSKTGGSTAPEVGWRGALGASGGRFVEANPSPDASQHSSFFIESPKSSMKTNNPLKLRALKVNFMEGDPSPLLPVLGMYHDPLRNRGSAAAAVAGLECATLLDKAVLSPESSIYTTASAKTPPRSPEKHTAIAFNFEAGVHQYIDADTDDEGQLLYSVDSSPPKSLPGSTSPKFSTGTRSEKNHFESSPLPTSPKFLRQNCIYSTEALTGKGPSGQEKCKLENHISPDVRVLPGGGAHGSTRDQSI

“MiDCA1, a phospholipase A2 (PLA2) neurotoxin from Micrurus dumerilii carinicauda coral snake venom (enzyme)” returned an inhibition of Kv2.1-mediated current in Xenopus oocytes by 1 μM MiDCA1 (reversible on washout) of 55%.
